From PMC6486541 (Nucleic Acids Research, 2019) come the findings set out here.

By Kd is commonly meant the concentration at which binding is half-saturated. A lower Kd goes with higher affinity. The stoichiometry N is a count of units in the complex or per binding partner.

For series [1], the target named is T1, OsWRKY45-DBD (OsWRKY45-1) (Oryza sativa Japonica subspecies, UniProt Q5W6D6 104-182).
T1 sequence: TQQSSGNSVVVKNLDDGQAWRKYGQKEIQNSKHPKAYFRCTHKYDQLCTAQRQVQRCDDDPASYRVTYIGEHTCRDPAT
The experiment in a line: EMSA. On the technique in general: A gel shift assay detects complexes by their altered migration in electrophoresis.

For series [2], the target named is T1, OsWRKY45-DBD (OsWRKY45-1). Kind of series: BLI. In general terms: Biolayer interferometry detects binding as a change in optical thickness at a sensor tip.
Series [3] addresses T2, OsWRKY45-DBD L150M (= OsWRKY45-2-DBD) (Oryza sativa Japonica subspecies, UniProt Q5W6D6 104-182, L150M).
T2 sequence: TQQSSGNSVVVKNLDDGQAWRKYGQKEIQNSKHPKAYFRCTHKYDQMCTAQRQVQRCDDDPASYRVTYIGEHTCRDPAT
Kind of series: BLI.

A further series has as its target T3, OsWRKY45-DBD R142A (Oryza sativa Japonica subspecies, UniProt Q5W6D6 104-182, R142A).
T3 sequence: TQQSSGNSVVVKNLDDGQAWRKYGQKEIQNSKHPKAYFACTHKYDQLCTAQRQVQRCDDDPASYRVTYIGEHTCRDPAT
Kind of series: BLI.

The series “AUC” deals with the molecule itself. Kind of series: AUC.

B1: MUT9C (dsDNA)
DNA 1: GATATTTGCCCGGA
DNA 2: TCCGGGCAAATATC
On to B1, for which the binding result in series [1] is “no binding”.

B2: MUT10A (dsDNA)
DNA 1: GATATTTGAACGGA
DNA 2: TCCGTTCAAATATC
Turning to B2, in series [1], the binding result was “no binding”.

B3: DNA-1 (W-box DNA) (dsDNA)
DNA 1: GATATTTGACCGGA
DNA 2: TCCGGTCAAATATC
In the case of B3, the Kd in series [2] is 4.6 µM; in series [3], 7.7 µM; with OsWRKY45-DBD R142A it was 13.8 µM.

B4: MUT11A (dsDNA)
DNA 1: GATATTTGACAGGA
DNA 2: TCCTGTCAAATATC
B4: the binding result in series [1] is reported as “no binding”.

B5: OsWRKY45–DBD (DNA binding domain of OsWRKY45, residues 104–182) (domain or fragment)
chain: TQQSSGNSVVVKNLDDGQAWRKYGQKEIQNSKHPKAYFRCTHKYDQLCTAQRQVQRCDDDPASYRVTYIGEHTCRDPAT
In the case of B5, the “stoichiometry N” value in “AUC” worked out at 2.

B6: MUT11T (dsDNA)
DNA 1: GATATTTGACTGGA
DNA 2: TCCAGTCAAATATC
On to B6, for which the binding result in series [1] is on record as “binds”.

B7: MUT7C (dsDNA)
DNA 1: GATATTCGACCGGA
DNA 2: TCCGGTCGAATATC
With B7, the binding result in series [1] is “no binding”.

B8: MUT8A (dsDNA)
DNA 1: GATATTTAACCGGA
DNA 2: TCCGGTTAAATATC
Take B8: the binding result in series [1] is recorded as “no binding”.
